Source: PMC3676807, “A Chimeric UDP-Glucose Pyrophosphorylase Produced by Protein Engineering Exhibits Sensitivity to Allosteric Regulators” (International Journal of Molecular Sciences, 2013)

Columns and labels:
[1] = target: T1, SmuGalU-Δ294EcoGlgC (chimeric UDP-Glc PPase); assay: Pi release after pyrophosphatase, Malachite Green; Hill fit; type: biochemical, Streptococcus mutans; Escherichia coli; settings: allosteric activator; 1 mM Glc-1P, 1 mM UTP, 3 mM Mg2+, pH 8.0, 37 °C; read-out: A0.5
T1 construct: gene galU; entire S. mutans GalU fused to the 137 C-terminal residues of E. coli GlgC (from P295); N-terminal His-tag kept; E. coli BL21 (DE3) pLysS; homotetramer ~200 kDa

[2] = target: chimeric SmuGalU-Δ294EcoGlgC (Streptococcus mutans ATCC 25175 | Escherichia coli) (UniProt P0A6V1); assay: SEC; gel filtration on Superdex 200 (Tricorn 5/200 column), calibrated with protein standards 44-669 kDa; mass of the native protein; buffer not stated
[3] = test system: T1, SmuGalU-Δ294EcoGlgC (chimeric UDP-Glc PPase); assay: Pi release after pyrophosphatase, Malachite Green; Hill fit; type: biochemical, Streptococcus mutans; Escherichia coli; settings: UDP-Glc synthesis, no effector, 3 mM Mg2+, pH 8.0, 37 °C
Source text: Pi release after pyrophosphatase, Malachite Green; Hill fit on SmuGalU-Δ294EcoGlgC (chimeric UDP-Glc PPase)

[4] = target: UDP-glucose pyrophosphorylase from Streptococcus mutans (SmuGalU) (Streptococcus mutans ATCC 25175); assay: SEC; gel filtration on Superdex 200 (Tricorn 5/200 column), calibrated with protein standards 44-669 kDa; mass of the native protein; buffer not stated
[5] = substrate: Cc1cn([C@H]2C[C@H](O)[C@@H](COP(=O)(O)OP(=O)(O)OP(=O)(O)O)O2)c(=O)[nH]c1=O; assay: Pi release after pyrophosphatase, Malachite Green; Hill fit; type: biochemical, Streptococcus mutans; settings: dTDP-Glc synthesis, 1 mM Glc-1P, 3 mM Mg2+, pH 8.0, 37 °C
[6] = substrate: O=P(O)(O)O[C@H]1O[C@H](CO)[C@@H](O)[C@H](O)[C@H]1O; assay: as above; type: biochemical, Streptococcus mutans; settings: UDP-Glc synthesis, saturating UTP, 3 mM Mg2+, pH 8.0, 37 °C
[7] = substrate: O=c1ccn([C@@H]2O[C@H](COP(=O)(O)OP(=O)(O)OP(=O)(O)O)[C@@H](O)[C@H]2O)c(=O)[nH]1; assay: as above; type: biochemical, Streptococcus mutans; settings: UDP-Glc synthesis, saturating Glc-1P, 3 mM Mg2+, pH 8.0, 37 °C

Work on `O=C(O)[C@H](O)COP(=O)(O)O` [3-PGA] yielded an EC50 [1] of 5.4 mM.

“chimeric SmuGalU-Δ294EcoGlgC (from UniProt P0A6V1 295-431) (enzyme)” showed a stoichiometry N [2] of 4.

With `CC(=O)C(=O)O` [Pyr] the EC50 [1] was 30 mM.

Molecule `O=P(O)(O)O[C@H]1O[C@H](CO)[C@@H](O)[C@H](O)[C@H]1O` [Glc-1P] has a Km ([3]; saturating UTP) of 60 ± 5 µM.

Work on `O=c1ccn([C@@H]2O[C@H](COP(=O)(O)OP(=O)(O)OP(=O)(O)O)[C@@H](O)[C@H]2O)c(=O)[nH]1` [UTP] yielded a Km ([3]; saturating Glc-1P) of 240 ± 20 µM.

`O=P(O)(O)OC[C@H]1OC(O)(COP(=O)(O)O)[C@@H](O)[C@@H]1O` (some centres unmarked) [Fru-1,6-bisP] was tested, and the EC50 [1] was 2 mM.

“UDP-glucose pyrophosphorylase from Streptococcus mutans (SmuGalU) (enzyme)” showed a stoichiometry N [4] of 4.

B1: SmuGalU (UDP-Glc PPase from S. mutans) (Streptococcus mutans UA159) (protein)
chain: MPSKKVRKAVIPAAGLGTRFLPATKALAKEMLPIVDKPTIQFIVEEALKSGIEDILVVTGKSKRSIEDHFDSNFELEYNLEQKGKTDLLKLVNDTTAINLHFIRQSHPRGLGDAVLQAKAFVGNEPFVVMLGDDLMDITDDKAIPLTRQLMNDYEETHASTIAVMEVPHEDVSAYGVIAPQGEGVSGLYSVDTFVEKPAPKEAPSNLAIIGRYLLTPEIFTILETQEPGAGNEVQLTDAIDTLNKTQRVFAREFKGKRYDVGDKFGFMKTSIDYALKHPQVKEDLKAYIIELGKKLDQKSTQKNSD
notes: full-length, N-terminal His-tag kept (pRSET-B), expressed in E. coli BL21 (DE3), Ni-NTA purified; homotetramer ~150 kDa; gene 921 bp
B1 was tested, and the K0.5 [5] was 0.54 mM, the K0.5 [6] was 0.090 ± 0.005 mM and the Vmax [6] was 62.1 µmol/min/mg. For the same molecule, the Vmax/Km [6] was 690000 µL/min/mg, the K0.5 [7] was 0.68 ± 0.06 mM and the Vmax [7] was 62.1 µmol/min/mg. It also gave a Vmax/Km [7] of 91300 µL/min/mg.
